Here are results for four molecules from US20230295310A1 (ABCELLERA BIOLOGICS, published 2023).

The assay addresses EGFR on HeLa cells (UniProt P00533 25-1210, limits assumed). Description: cell-based or functional assay.

B1: GOMP001_bsAb_045 (bispecific antibody, human IgG1, kappa, L234A L235A)
heavy 1: QVQLVQSGAEVKKPGASVKVSCKASGYTFTSHWMHWVRKAPGQGLEWIGEFNPSNGRTNYNEEFKSKATMTVDTSTNTAYMELSSLRSEDTAVYYCASRDYDYDGRYFDYWGQGTLVTVSSASTKGPSVFPLAPSSKSTSGGTAALGCLVADYFPEPVTVSWNSGALTSGVHTFPAVLQSSGLYSLSSVVTVPSSSLGTQTYICNVNHKPSNTKVDEKVEPKSCDKTHTCPPCPAPEAAGGPSVFLFPPKPKDTLMISRTPEVTCVVVDVSHEDPEVKFNWYVDGVEVHNAKTKPREEQYNSTYRVVSVLTVLHQDWLNGKEYKCKVSNKALPAPIEKTISKAKGQPREPQVYTLPPSREEMTDNQVSLTCLVKGFYPSDIAVEWESNGQPENNYKTTPPVLMSDGSFFLASKLTVDKSRWQQGNVFSCSVMHEALHNHYTQKSLSLSPG
light 1: RIQMTQSPSSLSASVGDRVTITCSASSSVTYMYWYQDKPGKAPKLLIYDTSNLASGVPSRFSGSGSGTDYTFTISSLQPEDIATYYCQQWSSHIFTFGQGTKVEIKRTVAAPSVFIFPPSDKQLKSGTARVVCLLNNFYPREAKVQWKVDNALQSGNSQESVTEQDSKDSTYSLSSTLTLSKADYEKHKVYACEVTHQGLSSPVTKSFNRGEC
heavy 2: EVQLVESGGGLVQPGRSLRLSCATSGFTFADYTMHWVRYAPGKGLEWVSGISWNSGSIDYADRVKGRFTISRDNAKKSLYLQMNSLRAEDTALYFCAKDSSGYGHYYFYYLDVWGRGTTVTVSSASTKGPSVFPLAPSSKSTSGGTAALGCLVKDYFPEPVTVSWNSGALTSGVHTFPAVLQSSGLYSLSSVVTVPSSSLGTQTYICNVNHKPSNTKVDKKVEPKSCDKTHTCPPCPAPEAAGGPSVFLFPPKPKDTLMISRTPEVTCVVVDVSHEDPEVKFNWYVDGVEVHNAKTKPREEQYNSTYRVVSVLTVLHQDWLNGKEYKCKVSNKALPAPIEKTISKAKGQPRRPRVYTLPPSREEMTKNQVSLVCLVKGFYPSDIAVEWESNGQPENNYKTTPPVLDSDGSFFLYSVLTVDKSRWQQGNVFSCSVMHEALHNHYTQKSLSLSPG
light 2: not shown
With B1, the Max killing % is 69.5% and the “X… HeLa EC50” value amounted to 0.179 nM.

B2: GOMP001_bsAb_049 (bispecific antibody, human IgG1, kappa, L234A L235A)
heavy 1: QVQLVQSGAEVKKPGASVKVSCKASGYTFTSHWMHWVRKAPGQGLEWIGEFNPSNGRTNYNEEFKSKATMTVDTSTNTAYMELSSLRSEDTAVYYCASRDYDYDGRYFDYWGQGTLVTVSSASTKGPSVFPLAPSSKSTSGGTAALGCLVADYFPEPVTVSWNSGALTSGVHTFPAVLQSSGLYSLSSVVTVPSSSLGTQTYICNVNHKPSNTKVDEKVEPKSCDKTHTCPPCPAPEAAGGPSVFLFPPKPKDTLMISRTPEVTCVVVDVSHEDPEVKFNWYVDGVEVHNAKTKPREEQYNSTYRVVSVLTVLHQDWLNGKEYKCKVSNKALPAPIEKTISKAKGQPREPQVYTLPPSREEMTDNQVSLTCLVKGFYPSDIAVEWESNGQPENNYKTTPPVLMSDGSFFLASKLTVDKSRWQQGNVFSCSVMHEALHNHYTQKSLSLSPG
light 1: RIQMTQSPSSLSASVGDRVTITCSASSSVTYMYWYQDKPGKAPKLLIYDTSNLASGVPSRFSGSGSGTDYTFTISSLQPEDIATYYCQQWSSHIFTFGQGTKVEIKRTVAAPSVFIFPPSDKQLKSGTARVVCLLNNFYPREAKVQWKVDNALQSGNSQESVTEQDSKDSTYSLSSTLTLSKADYEKHKVYACEVTHQGLSSPVTKSFNRGEC
heavy 2: QVQLVESGGGVVQPGRSLRLSCAASGFTFSTYGMHWVRYAPGKGLEWVAVIWYDGSHKYYADRVKGRFTISRDNSKKTLYLQMNSLRAEDTGIYYCARTGISGNMSYFYFDHWGRGILVTVSSASTKGPSVFPLAPSSKSTSGGTAALGCLVKDYFPEPVTVSWNSGALTSGVHTFPAVLQSSGLYSLSSVVTVPSSSLGTQTYICNVNHKPSNTKVDKKVEPKSCDKTHTCPPCPAPEAAGGPSVFLFPPKPKDTLMISRTPEVTCVVVDVSHEDPEVKFNWYVDGVEVHNAKTKPREEQYNSTYRVVSVLTVLHQDWLNGKEYKCKVSNKALPAPIEKTISKAKGQPRRPRVYTLPPSREEMTKNQVSLVCLVKGFYPSDIAVEWESNGQPENNYKTTPPVLDSDGSFFLYSVLTVDKSRWQQGNVFSCSVMHEALHNHYTQKSLSLSPG
light 2: not shown
B2 registered a Max killing % of 55.9%.

B3: GOMP001_bsAb_046 (bispecific antibody, human IgG1, kappa, L234A L235A)
heavy 1: EVQLVESGGGLVQPGRSLRLSCATSGFTFADYTMHWVRKAPGKGLEWVSGISWNSGSIDYADEVKGRFTISRDNAKKSLYLQMNSLRAEDTALYFCAKDSSGYGHYYFYYLDVWGKGTTVTVSSASTKGPSVFPLAPSSKSTSGGTAALGCLVADYFPEPVTVSWNSGALTSGVHTFPAVLQSSGLYSLSSVVTVPSSSLGTQTYICNVNHKPSNTKVDEKVEPKSCDKTHTCPPCPAPEAAGGPSVFLFPPKPKDTLMISRTPEVTCVVVDVSHEDPEVKFNWYVDGVEVHNAKTKPREEQYNSTYRVVSVLTVLHQDWLNGKEYKCKVSNKALPAPIEKTISKAKGQPREPQVYTLPPSREEMTDNQVSLTCLVKGFYPSDIAVEWESNGQPENNYKTTPPVLMSDGSFFLASKLTVDKSRWQQGNVFSCSVMHEALHNHYTQKSLSLSPG
light 1: not shown
heavy 2: QVQLVQSGAEVKKPGASVKVSCKASGYTFTSHWMHWVRYAPGQGLEWIGEFNPSNGRTNYNEKFKSKATMTVDTSTNTAYMELSSLRSEDTAVYYCASRDYDYDGRYFDYWGRGTLVTVSSASTKGPSVFPLAPSSKSTSGGTAALGCLVKDYFPEPVTVSWNSGALTSGVHTFPAVLQSSGLYSLSSVVTVPSSSLGTQTYICNVNHKPSNTKVDKKVEPKSCDKTHTCPPCPAPEAAGGPSVFLFPPKPKDTLMISRTPEVTCVVVDVSHEDPEVKFNWYVDGVEVHNAKTKPREEQYNSTYRVVSVLTVLHQDWLNGKEYKCKVSNKALPAPIEKTISKAKGQPRRPRVYTLPPSREEMTKNQVSLVCLVKGFYPSDIAVEWESNGQPENNYKTTPPVLDSDGSFFLYSVLTVDKSRWQQGNVFSCSVMHEALHNHYTQKSLSLSPG
light 2: DIQMTQSPSSLSASVGDRVTITCSASSSVTYMYWYQRKPGDAPKLLIYDTSNLASGVPSRFSGSGSGTDYTFTISSLQPEDIATYYCQQWSSHIFTFGQGTKVEIKRTVAAPSVFIFPPSDEQLKSGTASVVCLLNNFYPREAKVQWKVDNALQSGNSQESVTEQDSKDSTYSLSSTLTLSKADYEKHKVYACEVTHQGLSSPVTKSFNRGEC
As to B3, the Max killing % stood at 92.6% and the “X… HeLa EC50” value was determined as 0.0264 nM.

B4: GOMP001_bsAb_050 (bispecific antibody, human IgG1, kappa, L234A L235A)
heavy 1: QVQLVESGGGVVQPGRSLRLSCAASGFTFSTYGMHWVRKAPGKGLEWVAVIWYDGSHKYYADEVKGRFTISRDNSKKTLYLQMNSLRAEDTGIYYCARTGISGNMSYFYFDHWGQGILVTVSSASTKGPSVFPLAPSSKSTSGGTAALGCLVADYFPEPVTVSWNSGALTSGVHTFPAVLQSSGLYSLSSVVTVPSSSLGTQTYICNVNHKPSNTKVDEKVEPKSCDKTHTCPPCPAPEAAGGPSVFLFPPKPKDTLMISRTPEVTCVVVDVSHEDPEVKFNWYVDGVEVHNAKTKPREEQYNSTYRVVSVLTVLHQDWLNGKEYKCKVSNKALPAPIEKTISKAKGQPREPQVYTLPPSREEMTDNQVSLTCLVKGFYPSDIAVEWESNGQPENNYKTTPPVLMSDGSFFLASKLTVDKSRWQQGNVFSCSVMHEALHNHYTQKSLSLSPG
light 1: not shown
heavy 2: QVQLVQSGAEVKKPGASVKVSCKASGYTFTSHWMHWVRYAPGQGLEWIGEFNPSNGRTNYNEKFKSKATMTVDTSTNTAYMELSSLRSEDTAVYYCASRDYDYDGRYFDYWGRGTLVTVSSASTKGPSVFPLAPSSKSTSGGTAALGCLVKDYFPEPVTVSWNSGALTSGVHTFPAVLQSSGLYSLSSVVTVPSSSLGTQTYICNVNHKPSNTKVDKKVEPKSCDKTHTCPPCPAPEAAGGPSVFLFPPKPKDTLMISRTPEVTCVVVDVSHEDPEVKFNWYVDGVEVHNAKTKPREEQYNSTYRVVSVLTVLHQDWLNGKEYKCKVSNKALPAPIEKTISKAKGQPRRPRVYTLPPSREEMTKNQVSLVCLVKGFYPSDIAVEWESNGQPENNYKTTPPVLDSDGSFFLYSVLTVDKSRWQQGNVFSCSVMHEALHNHYTQKSLSLSPG
light 2: DIQMTQSPSSLSASVGDRVTITCSASSSVTYMYWYQRKPGDAPKLLIYDTSNLASGVPSRFSGSGSGTDYTFTISSLQPEDIATYYCQQWSSHIFTFGQGTKVEIKRTVAAPSVFIFPPSDEQLKSGTASVVCLLNNFYPREAKVQWKVDNALQSGNSQESVTEQDSKDSTYSLSSTLTLSKADYEKHKVYACEVTHQGLSSPVTKSFNRGEC
Regarding B4, the Max killing % stood at 57%.
